T1: CD25-Fc (UniProt P01589 22-213, limits assumed)
T1 construct: Bought reagent; The same stock (100 ug/mL aliquots) was used as CD25-Fc in the ELISA and as IL2Ra-Fc on ProA tips in the Octet assay; also called IL2Ra-Fc; CD25 (IL2Ra); not shown: Fc part of the bought fusion
T1 sequence (looked up): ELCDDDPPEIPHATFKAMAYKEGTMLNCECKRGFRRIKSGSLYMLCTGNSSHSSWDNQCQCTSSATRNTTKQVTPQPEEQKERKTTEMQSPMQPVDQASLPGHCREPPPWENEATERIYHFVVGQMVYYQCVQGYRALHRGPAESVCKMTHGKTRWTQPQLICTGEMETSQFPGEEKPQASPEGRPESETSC

T2: IL2Rb/g-Fc (UniProt P14784 27-239; P31785 23-262, limits assumed)
T2 construct: Captured at 12 ug/mL on ProA tips; also called IL-2/15Rβγ; IL-2Rβγ; not shown: Fc part
T2 sequence (looked up) 1: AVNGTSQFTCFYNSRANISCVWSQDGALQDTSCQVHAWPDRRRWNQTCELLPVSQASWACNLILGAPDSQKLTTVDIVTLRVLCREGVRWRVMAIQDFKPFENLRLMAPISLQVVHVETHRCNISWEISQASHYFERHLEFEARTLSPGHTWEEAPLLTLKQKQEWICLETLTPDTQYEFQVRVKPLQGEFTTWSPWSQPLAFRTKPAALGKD
T2 sequence (looked up) 2: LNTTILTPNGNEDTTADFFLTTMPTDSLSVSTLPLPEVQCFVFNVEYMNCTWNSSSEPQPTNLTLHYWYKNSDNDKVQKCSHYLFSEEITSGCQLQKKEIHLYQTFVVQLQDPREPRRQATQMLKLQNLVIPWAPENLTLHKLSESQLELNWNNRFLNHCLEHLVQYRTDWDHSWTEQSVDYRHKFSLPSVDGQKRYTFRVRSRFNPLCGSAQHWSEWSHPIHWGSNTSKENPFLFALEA

B1: SEQ ID NO 33 (designed binder)
chain: APTSSSTKKTQLQAEHLLLDLQMILNGINNYKNPKLTRMLTFGGTATIVEFLNRWITFCESGADEEAAKSLQALEEELKPLEEVLNLAQSKNFHLRPRDLISNINVIVLELKGS
notes: ELISA captured STII-tagged protein from supernatant; also called Designed Cytokine No. 33
B2: SEQ ID NO 17 (designed binder)
chain: APTSSSTKKTQLQLEHLLLDLQMILNGMNNGNADPELVEFLNRWITFAQDGSADLKHLQALEEELKPLEEVLNLAQSKNFHLRPRDLISNINVIVLELKGS
notes: ELISA captured STII-tagged protein from supernatant; also called Designed Cytokine No. 17
B3: SEQ ID NO 18 (designed binder)
chain: B2 chain with M28I, G31M
notes: ELISA captured STII-tagged protein from supernatant; also called Designed Cytokine No. 18
B4: SEQ ID NO 34 (designed binder)
chain: APTSSSTKKTQLQLEHLLLDLQMILNGINNYKNPKLTEIDPKLVEFLNRWITFCQSAIKSGSNTAKELQALEEELKPLEEVLNLAQSKNFHLRPRDLISNINVIVLELAGS
notes: ELISA captured STII-tagged protein from supernatant; also called Designed Cytokine No. 34
B5: SEQ ID NO 28 (designed binder)
chain: APTSSSTKKTQLQLEHLLLDLQMILNGAEVDPKIKEFLNRWITFCQSVIKANKDTREELKHLQALEERLKPLEEVLNRAQSKNFHLRPRDLISNINVIVLELKGS
notes: ELISA captured STII-tagged protein from supernatant; also called Designed Cytokine No. 28
B6: SEQ ID NO 19 (designed binder)
chain: APTSSSTKKTQLQLEHLLLDLQMIANALNKLGIESPFLNRWITFCQSNHEDAAKHLQALEEELKPLEEVLNLAQSKNFHLRPRDLISNINVIVLELMGS
notes: ELISA captured STII-tagged protein from supernatant; also called Designed Cytokine No. 19
B7: SEQ ID NO 21 (designed binder)
chain: APTSSSTKKTQLQLEHLLLDLQMILNALKKLNINSPMQEFLNRWITFCESNTEDALKHLQALEEELKPLEEVLNLAQSKNFHLRPRDLISNINVIVLELKGS
notes: ELISA captured STII-tagged protein from supernatant; also called Designed Cytokine No. 21
B8: SEQ ID NO 30 (designed binder)
chain: B7 chain with E65R, L75R
notes: ELISA captured STII-tagged protein from supernatant; also called Designed Cytokine No. 30
B9: SEQ ID NO 26 (designed binder)
chain: APTSSSTKKTQLQLEHLLLDLQMILNFPVDSEMVEFLNRWITFAEKGTEDALKELQALEEELKPLEEVLNLAQSKNFHLRPRDLISNINVIVLELKGS
notes: ELISA captured STII-tagged protein from supernatant; also called Designed Cytokine No. 26
B10: SEQ ID NO 23 (designed binder)
chain: B9 chain with E45Q, T48D, D50S, E54H
notes: ELISA captured STII-tagged protein from supernatant; also called Designed Cytokine No. 23
B11: SEQ ID NO 31 (designed binder)
chain: B9 chain with E61R, L71R
notes: ELISA captured STII-tagged protein from supernatant; also called Designed Cytokine No. 31
B12: SEQ ID NO 25 (designed binder)
chain: B9 chain with L52N
notes: ELISA captured STII-tagged protein from supernatant; also called Designed Cytokine No. 25
B13: SEQ ID NO 35 (designed binder)
chain: APTSSSTKKTQLQLEHLLLDLQMILNGINNYKNPKLTEIDPKLVEFLNRWITFCQTIINGGESATLKHLQALEEELKPLEEVLNLAQSKNFHLRPRDLISNINVIVLELKGS
notes: ELISA captured STII-tagged protein from supernatant; also called Designed Cytokine No. 35
B14: SEQ ID NO 36 (designed binder)
chain: B13 chain with T56S, G61D, A64F, T65S
notes: ELISA captured STII-tagged protein from supernatant; also called Designed Cytokine No. 36
B15: SEQ ID NO 27 (designed binder)
chain: APTSSSTKKTQLQLEHLLLDLQMILNGINNMNADPELVEFLNRWITFCQSLIKKGSNEDLKHLQALEERLKPLEEVLNRAQSKNFHLRPRDLISNINVIVLELKGS
notes: ELISA captured STII-tagged protein from supernatant; also called Designed Cytokine No. 27
B16: SEQ ID NO 29 (designed binder)
chain: APTSSSTKKTQLQLEHLLLDLQMILNALNKLNINDHIVEFLNRWITFCQSATSDPDLLKHLQALEERLKPLEEVLNRAQSKNFHLRPRDLISNINVIVLELKGS
notes: ELISA captured STII-tagged protein from supernatant; also called Designed Cytokine No. 29
B17: SEQ ID NO 24 (designed binder)
chain: APTSSSTKKTQLQLEHLELDLQMILNLAEVDPTMKEFLNRWITEAQSSNATLKSLQALEEELKPLEEVLNLAQSKNFHLRPRDLISNINVIVLELKGS
notes: ELISA captured STII-tagged protein from supernatant; also called Designed Cytokine No. 24
B18: SEQ ID NO 32 (designed binder)
chain: APTSSSTKKTQLQLEHLLLDLQMILNGINNYKNPKLTRMLTFGGTATIVEFLNRWITACQREADPEALQALEEELKPLEEVLNLAQSKNFHLRPRDLISNINVIVLELMGS
notes: ELISA captured STII-tagged protein from supernatant; also called Designed Cytokine No. 32
B19: SEQ ID NO 38 (designed binder)
chain: APTSSSTKKTQLQLEHLLLDLQMILNGINNMNADPELVEFLNRWITFCQTAISTGKDNLKHLQALEEELKPLEEVLNLAQSKNFHLRPRDLISNINVIVLELKGS
notes: ELISA captured STII-tagged protein from supernatant; also called Designed Cytokine No. 38
B20: SEQ ID NO 37 (designed binder)
chain: APTSSSTKKTQLQLEHLLLDLQMILNGINNYKNPKLTKLDPSLVEFLNRWITFCQSATSDPDLLKHLQALEEELKPLEEVLNLAQSKNFHLRPRDLISNINVIVLELKGS
notes: ELISA captured STII-tagged protein from supernatant; also called Designed Cytokine No. 37
B21: SEQ ID NO 20 (designed binder)
chain: APTSSSTKKTQLQLEHLLLDLQMIANALNKLGIESPFLNRWITFCQSVISASDDTREELKHLQALEEELKPLEEVLNLAQSKNFHLRPRDLISNINVIVLELKGS
notes: ELISA captured STII-tagged protein from supernatant; also called Designed Cytokine No. 20
B22: SEQ ID NO 22 (designed binder)
chain: APTSSSTKKTQLQLEHLLLDLQMILNLAEVDPTMKEFLNRWITFCESNSESALKHLQALEEELKPLEEVLNLAQSKNFHLRPRDLISNINVIVLELKGS
notes: ELISA captured STII-tagged protein from supernatant; also called Designed Cytokine No. 22
B23: Designed Cytokine No. 169 (designed binder)
chain: APTSSSTKKTQLQLEHLLLDLQMILNGINNMNADPELVEFLNRWITFCQSIISTGSLEDLKHLQALEEELKPLEEVLNLAQSKNFHLRPRDLISNINVIVLELKGSGSGNWSHPQFEK
notes: also called Design 1
B24: Designed Cytokine No. 153 (designed binder)
chain: APTSSSTKKTQLQLEHLLLDLQMILNGINNMNADPELVEFLNRWITFCQSIISTGSVDPEELAKELQKLEEELKPLEEVLNLAQSKNFHLRPRDLISNINVIVLELKGSGSGNWSHPQFEK
notes: also called Design 3
B25: Designed Cytokine No. 39 (designed binder)
chain: APTSSSTKKTQLQLEHLLLDLQMILNGINNMNADPELVEFLNRWITFCQSLIKKGSNEDLKHLQALEEELKPLEEVLNLAQSKNFHLRPRDLISNINVIVLELKGSGSGGSGNWSHPQFEK
B26: Designed Cytokine No. 40 (designed binder)
chain: B25 chain with M31G

Changes are numbered by the printed parent chain.

In the first experiment the target is T1, CD25-Fc. Put plainly: ELISA, STII-tagged cytokine captured on Strep-Tactin plate, CD25-Fc detected (FIG. 5A).
Conditions: not given
For the molecule B1, the binding result is reported as “no binding”.
In the case of B2, the binding result is given as “no binding”.
As to B3, the binding result was “no binding”.
For B4, the binding result is “no binding”.
On the same count and under the same terms, under B5 stands “no binding”; under B6, “no binding”.
On to B7, for which the binding result is given as “no binding”.
Still for that read-out and setting: the entry for B8 is “no binding”; for B9 it is “no binding”.
On the same count and under the same terms, the entry for B10 is “no binding”; for B11 it is “no binding”.
The same measure, in the same setting: the entry for B12 is “no binding”; for B13 it is “no binding”.
Regarding B14, the binding result is “no binding”.
The same measure, in the same setting: the entry for B15 is “no binding”; for B16 it is “no binding”.
B17: the binding result is reported as “no binding”.
Still for that read-out and setting: the entry for B18 is “no binding”.
With B19, the binding result was “no binding”.
With B20, the binding result is listed as “no binding”.
Same read-out and setting: the entry for B21 is “no binding”; for B22 it is “no binding”.

For a further experiment, the target named is CD25-Fc (UniProt P01589). Kind of experiment: BLI. Particulars: ligand.
WT IL-2 (from UniProt P60568 21-153) displayed a Kd of 20 nM.

A further experiment concerns the target T2, IL2Rb/g-Fc. Put plainly: Octet (BLI), IL2Rb/g-Fc captured on ProA tips, cytokine in solution.
Conditions: not given
For the molecule B23, the dissociation constant Kd is roughly 1.6 nM.
The same measure, in the same setting: the figure for B24 is 3.9 nM.

A further experiment deals with T1, CD25-Fc. Kind of experiment: ELISA, STII-tagged cytokine captured on Strep-Tactin plate, CD25-Fc detected.
Conditions: not given
Regarding B25, the binding result is given as “no binding”.
On the same count and under the same terms, the entry for B26 is “no binding”.

In general, Kd refers to the concentration at which binding is half-saturated. A high value points to lower affinity.

The values are drawn from US20250223330A1 (OUTPACE BIO, published 2025).
